Reference: patent US20040224362A1

Target: anti-FLAG M2 mouse monoclonal IgG1 (Sigma-Aldrich PN F-3165)
Test: capture on a 1 m Protein G capillary, elution with 14.7 mM phosphoric acid pH 2.2, Bradford assay at 595 nm

Protein G (CalBiochem, San Diego, Calif., PN 539303) (from UniProt P19909 303-497)
amount of IgG trapped and eluted: 2.5 µg
